Experimental data from patent US7304127.

biological target: HIV-1LAI envelope gp120 labeled with radioactive iodine (HIV-1 LAI), P03377; assay: 125I-gp120, peptide array

Binder	counts minus background (counts per 20 min)
RLHLSVADLLFVITLPFW (modifications not checked) [CXCR4 77-94]	136
TVNLYSSVLILAFISLDR (modifications not checked) [CXCR4 117-134]	242
FISLDRYLAIVHATNSQR (modifications not checked) [CXCR4 129-146]	91
LILAFISLDRYLAIVHAT (modifications not checked) [CXCR4 125-142]	107
NWYFGNFLCKAVHVIYTV (modifications not checked) [CXCR4 101-118]	96
FVGNMLVILILINCKRLK (modifications not checked) [CCR5 45-62]	62
FIFGFVGNMLVILILINC (modifications not checked) [CCR5 41-58]	343
FWAVDAVANWYFGNFLCK (modifications not checked) [CXCR4 93-110]	66
YSLVFIFGFVGNMLVILI (modifications not checked) [CCR5 37-54]	347
AIVHATNSQRPRKLLAEK (modifications not checked) [CXCR4 137-154]	73
DRYLAIVHATNSQRPRKL (modifications not checked) [CXCR4 133-150]	168
YQKKLRSMTDKYRLHLSV (modifications not checked) [CXCR4 65-82]	99
SVADLLFVITLPFWAVDA (modifications not checked) [CXCR4 81-98]	253
GLVILVMGYQKKLRSMTD (modifications not checked) [CXCR4 57-74]	157
MDYQVSSPIYDINYYTSE (modifications not checked) [CCR5 1-18]	735
HVIYTVNLYSSVLILAFI (modifications not checked) [CXCR4 113-130]	118
ATNSQRPRKLLAEKVVYV (modifications not checked) [CXCR4 141-158]	78
TDKYRLHLSVADLLFVIT (modifications not checked) [CXCR4 73-90]	92
DAVANWYFGNFLCKAVHV (modifications not checked) [CXCR4 97-114]	112
LLFVITLPFWAVDAVANW (modifications not checked) [CXCR4 85-102]	63
LRSMTDKYRLHLSVADLL (modifications not checked) [CXCR4 69-86]	160
GNFLCKAVHVIYTVNLYS (modifications not checked) [CXCR4 105-122]	231
LVMGYQKKLRSMTDKYRL (modifications not checked) [CXCR4 61-78]	105
ITLPFWAVDAVANWYFGN (modifications not checked) [CXCR4 89-106]	130
YSSVLILAFISLDRYLAI (modifications not checked) [CXCR4 121-138]	157
CKAVHVIYTVNLYSSVLI (modifications not checked) [CXCR4 109-126]	243
